Holding throughout (experiment): ELISA
For orientation: ELISA stands for enzyme-linked immunosorbent assay.

The target of one assay is BDBV GP ectodomain (Bundibugyo virus; strain of the bought …, UniProt B8XCN0).
The target of assay [1] is EBOV soluble glycoprotein (sGP) (Ebola virus (EBOV), UniProt P60170).
For a further assay, the target named is SUDV GP ectodomain (Sudan virus (SUDV), UniProt Q7T9D9).

Data on two molecules can be found in PMC10204903 (Cell, 2022).

B1: mAb 9.20.1C3 (antibody, V domains shown)
VH: QVQLVQSGAEVKKPGSSVKVACKVSGGTFSSYTISWVRQAPGQGLEWMGGIIPSFGVGHYSQKFRDRVTLTADKSTTTAFLELSSVRSEDTALYYCAILGTFNWKSGGNYFGPWGQGTLVTVSS
VL: DIVLTQSPDSLAASLGERATISCKSSHSVLYSSNNKDFFAWYQQKPGQPPKLLISWASTRESGVPVRFNGGGSGTHFTLTISSLQAEDVAVYYCQQYFSSPITFGQGTRLEIK
As to B1, the binding result in the assay with BDBV GP ectodomain is “binds”; in assay [1] it was “no binding”; with SUDV GP ectodomain, “binds”.

B2: mAb 5.24.1C11 (antibody, V domains shown)
VH: QVQLVQSGAEVKKPGASVKVSCRTSGYTFSSYNIHWVRQAPGQGLEWMGVINPYGRSTTLYARRFRDRVTMTRDTSTSTVYMELSSLRSEDTAVYFCGRLYSGAPYGLDVWGQGSTVTVSS
VL: DIVMTQSPLSLPVTPGEPASISCRSSQSLLHSNGYNYVDWYLQKPGQSPQLLIYLGSSRASGVPDRFSGSGSGTDFTLKISRVETEDVGIYYCMQGLQTPLTFGGGTKVEIK
B2: the binding result in the assay with BDBV GP ectodomain is given as “binds”; in assay [1], “no binding”; with SUDV GP ectodomain it was “binds”.
